Assay results from patent US20250073311A1, “DOSAGE REGIME” (ZEALAND PHARMA A/S, priority 2021, published 2025).
Numbered stars: 1 amine (or outer) side, 2 acyl side, 3 side chain; on linkers, the order of the positions; unused ones are H or OH. Square brackets hold non-standard residues; d marks the D form. Side chains are listed from the residue outwards. * marks the point of attachment. C20 diacid = O=C(O)CCCCCCCCCCCCCCCCCCC(=O)*; C18 diacid = O=C(O)CCCCCCCCCCCCCCCCC(=O)*; γGlu = O=C(O)[C@H](CCC(=O)[*:2])N[*:1]; KEK = Lys-Glu-Lys peptide sequence; AEEA = NCCOCCOCC(=O)O; Aib = CC(C)(N)C(=O)O

T1: human GLP-2 receptor (hGLP2-R) (human, UniProt O95838)
T1 sequence: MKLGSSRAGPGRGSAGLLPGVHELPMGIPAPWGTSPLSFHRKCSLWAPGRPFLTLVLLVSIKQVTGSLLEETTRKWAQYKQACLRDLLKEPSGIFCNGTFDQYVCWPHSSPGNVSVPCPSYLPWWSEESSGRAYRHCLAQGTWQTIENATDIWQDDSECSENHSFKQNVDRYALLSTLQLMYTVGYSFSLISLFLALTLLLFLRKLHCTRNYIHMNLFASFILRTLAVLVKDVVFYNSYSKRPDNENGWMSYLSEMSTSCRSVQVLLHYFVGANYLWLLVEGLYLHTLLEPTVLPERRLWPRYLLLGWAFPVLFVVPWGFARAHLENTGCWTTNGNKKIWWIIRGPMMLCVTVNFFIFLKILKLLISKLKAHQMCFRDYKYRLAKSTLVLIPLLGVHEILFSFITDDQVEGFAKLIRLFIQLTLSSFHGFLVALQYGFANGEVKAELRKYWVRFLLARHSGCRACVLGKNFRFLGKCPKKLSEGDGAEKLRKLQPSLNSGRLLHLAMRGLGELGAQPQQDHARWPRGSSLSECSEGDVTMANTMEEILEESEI

B1: Compound 2 (peptide)
peptide: H-H[Aib]EGSFTSELATILDK([γGlu-C18 diacid])EAARDFIAWLIEHKITD-OH
SMILES: CC[C@H](C)[C@H](NC(=O)[C@H](Cc1ccccc1)NC(=O)[C@H](CC(=O)O)NC(=O)[C@H](CCCNC(=N)N)NC(=O)[C@H](C)NC(=O)[C@H](C)NC(=O)[C@H](CCC(=O)O)NC(=O)[C@H](CCCCNC(=O)CC[C@H](NC(=O)CCCCCCCCCCCCCCCCC(=O)O)C(=O)O)NC(=O)[C@H](CC(=O)O)NC(=O)[C@H](CC(C)C)NC(=O)[C@@H](NC(=O)[C@@H](NC(=O)[C@H](C)NC(=O)[C@H](CC(C)C)NC(=O)[C@H](CCC(=O)O)NC(=O)[C@H](CO)NC(=O)[C@@H](NC(=O)[C@H](Cc1ccccc1)NC(=O)[C@H](CO)NC(=O)CNC(=O)[C@H](CCC(=O)O)NC(=O)C(C)(C)NC(=O)[C@@H](N)Cc1c[nH]cn1)[C@@H](C)O)[C@@H](C)O)[C@@H](C)CC)C(=O)N[C@@H](C)C(=O)N[C@@H](Cc1c[nH]c2ccccc12)C(=O)N[C@@H](CC(C)C)C(=O)N[C@H](C(=O)N[C@@H](CCC(=O)O)C(=O)N[C@@H](Cc1c[nH]cn1)C(=O)N[C@@H](CCCCN)C(=O)N[C@H](C(=O)N[C@H](C(=O)N[C@@H](CC(=O)O)C(=O)O)[C@@H](C)O)[C@@H](C)CC)[C@@H](C)CC
B2: Compound 3 (peptide)
peptide: H-H[Aib]EGTFTSELATILDK([γGlu-C18 diacid])EAARDFIAWLIEHKITD-OH
SMILES: CC[C@H](C)[C@H](NC(=O)[C@H](Cc1ccccc1)NC(=O)[C@H](CC(=O)O)NC(=O)[C@H](CCCNC(=N)N)NC(=O)[C@H](C)NC(=O)[C@H](C)NC(=O)[C@H](CCC(=O)O)NC(=O)[C@H](CCCCNC(=O)CC[C@H](NC(=O)CCCCCCCCCCCCCCCCC(=O)O)C(=O)O)NC(=O)[C@H](CC(=O)O)NC(=O)[C@H](CC(C)C)NC(=O)[C@@H](NC(=O)[C@@H](NC(=O)[C@H](C)NC(=O)[C@H](CC(C)C)NC(=O)[C@H](CCC(=O)O)NC(=O)[C@H](CO)NC(=O)[C@@H](NC(=O)[C@H](Cc1ccccc1)NC(=O)[C@@H](NC(=O)CNC(=O)[C@H](CCC(=O)O)NC(=O)C(C)(C)NC(=O)[C@@H](N)Cc1c[nH]cn1)[C@@H](C)O)[C@@H](C)O)[C@@H](C)O)[C@@H](C)CC)C(=O)N[C@@H](C)C(=O)N[C@@H](Cc1c[nH]c2ccccc12)C(=O)N[C@@H](CC(C)C)C(=O)N[C@H](C(=O)N[C@@H](CCC(=O)O)C(=O)N[C@@H](Cc1c[nH]cn1)C(=O)N[C@@H](CCCCN)C(=O)N[C@H](C(=O)N[C@H](C(=O)N[C@@H](CC(=O)O)C(=O)O)[C@@H](C)O)[C@@H](C)CC)[C@@H](C)CC
B3: Compound 1 (peptide)
peptide: H-H[Aib]EGTFSSELATILDK([γGlu-C18 diacid])EAARDFIAWLIEHKITD-OH
SMILES: CC[C@H](C)[C@H](NC(=O)[C@H](Cc1ccccc1)NC(=O)[C@H](CC(=O)O)NC(=O)[C@H](CCCNC(=N)N)NC(=O)[C@H](C)NC(=O)[C@H](C)NC(=O)[C@H](CCC(=O)O)NC(=O)[C@H](CCCCNC(=O)CC[C@H](NC(=O)CCCCCCCCCCCCCCCCC(=O)O)C(=O)O)NC(=O)[C@H](CC(=O)O)NC(=O)[C@H](CC(C)C)NC(=O)[C@@H](NC(=O)[C@@H](NC(=O)[C@H](C)NC(=O)[C@H](CC(C)C)NC(=O)[C@H](CCC(=O)O)NC(=O)[C@H](CO)NC(=O)[C@H](CO)NC(=O)[C@H](Cc1ccccc1)NC(=O)[C@@H](NC(=O)CNC(=O)[C@H](CCC(=O)O)NC(=O)C(C)(C)NC(=O)[C@@H](N)Cc1c[nH]cn1)[C@@H](C)O)[C@@H](C)O)[C@@H](C)CC)C(=O)N[C@@H](C)C(=O)N[C@@H](Cc1c[nH]c2ccccc12)C(=O)N[C@@H](CC(C)C)C(=O)N[C@H](C(=O)N[C@@H](CCC(=O)O)C(=O)N[C@@H](Cc1c[nH]cn1)C(=O)N[C@@H](CCCCN)C(=O)N[C@H](C(=O)N[C@H](C(=O)N[C@@H](CC(=O)O)C(=O)O)[C@@H](C)O)[C@@H](C)CC)[C@@H](C)CC

target: T1, human GLP-2 receptor (hGLP2-R); experiment: cell-based or functional assay

Binder | EC50 GLP-2 (nM), cAMP AlphaScreen
H-H[Aib]EGTFTSELATILDEQAAK([AEEA-KEK-γGlu-C20 diacid])DFIAWLIEHKITD-OH [Compound 65] | 0.35 nM
H-H[Aib]EGTFTSELATILDK([KEK-γGlu-C20 diacid])QAARDFIAWLIQHKITD-OH [Compound 51] | 0.18 nM
H-H[Aib]EGTFSSELATILDK([AEEA-KEK-γGlu-C20 diacid])QAARDFIAWLIEHKITD-OH [Compound 50] | 0.056 nM
H-H[Aib]EGTFSSELATILDK([AEEA-KEK-γGlu-C18 diacid])QAARDFIAWLIQHKITD-OH [Compound 47] | 0.048 nM
H-H[Aib]EGSFTSELATILDK([AEEA-KEK-γGlu-C20 diacid])KAARDFIAWLIEHKITD-OH [Compound 59] | 0.11 nM
H-H[Aib]EGSFTSELATILDK([AEEA-AEEA-KEK-γGlu-C20 diacid])QAARDFIAWLIEHKITD-OH [Compound 60] | 0.074 nM
B1 | 0.25 nM
H-H[Aib]EGSFTSELATILDAK([AEEA-AEEA-KEK-γGlu-C20 diacid])AARDFIAWLIEHKITD-OH [Compound 63] | 0.17 nM
H-H[Aib]EGTFTSELATILDK([AEEA-KEK-γGlu-C20 diacid])QAARDFIAWLIEHKITD-OH [Compound 56] | 0.076 nM
B2 | 0.33 nM
B3 | 0.35 nM
H-H[Aib]EGSFTSELATILDAK([AEEA-KEK-γGlu-C20 diacid])AARDFIAWLIEHKITD-OH [Compound 62] | 0.15 nM
H-H[Aib]EGSFTSEK([AEEA-KEK-γGlu-C20 diacid])ATILDEQAARDFIAWLIEHKITD-OH [Compound 53] | 0.24 nM
H-H[Aib]EGTFTSEK([AEEA-KEK-γGlu-C20 diacid])ATILDEQAARDFIAWLIEHKITD-OH [Compound 54] | 0.99 nM
H-H[Aib]EGSFTSELATILDEQAAK([AEEA-KEK-γGlu-C20 diacid])DFIAWLIEHKITD-OH [Compound 64] | 0.2 nM
H-H[Aib]EGTFSSELATILDK([AEEA-KEK-γGlu-C18 diacid])QAARDFIAWLIEHKITD-OH [Compound 49] | 0.044 nM
H-H[Aib]EGTFSSELATILDK([AEEA-KEK-γGlu-C20 diacid])QAARDFIAWLIQHKITD-OH [Compound 48] | 0.054 nM
H-H[Aib]EGSFTSELATILEGK([AEEA-KEK-γGlu-C20 diacid])AARDFIAWLIEHKITD-OH [Compound 61] | 0.2 nM
H-H[Aib]EGSFTSELATILDK([AEEA-KEK-γGlu-C20 diacid])QAARDFIAWLIAHKITD-OH [Compound 58] | 0.09 nM
H-H[Aib]EGTFTSELATILDK([AEEA-KEK-γGlu-C20 diacid])QAARDFIAWLIQHKITD-OH [Compound 52] | 0.075 nM
H-H[Aib]EGSFTSEK([AEEA-AEEA-KEK-γGlu-C20 diacid])ATILDEQAARDFIAWLIEHKITD-OH [Compound 55] | 0.78 nM
H-H[Aib]EGSFTSELATILDK([AEEA-KEK-γGlu-C20 diacid])QAARDFIAWLIEHKITD-OH [Compound 57] | 0.083 nM

target: human glucagon-like peptide 1 receptor (GLP-1R) (human, UniProt P43220); experiment: cell-based or functional assay

Binder | EC50 GLP-1 (nM), cAMP AlphaScreen
H-H[Aib]EGTFTSELATILDEQAAK([AEEA-KEK-γGlu-C20 diacid])DFIAWLIEHKITD-OH [Compound 65] | 0.13 nM
H-H[Aib]EGTFTSELATILDK([KEK-γGlu-C20 diacid])QAARDFIAWLIQHKITD-OH [Compound 51] | 0.02 nM
H-H[Aib]EGTFSSELATILDK([AEEA-KEK-γGlu-C20 diacid])QAARDFIAWLIEHKITD-OH [Compound 50] | 0.31 nM
H-H[Aib]EGTFSSELATILDK([AEEA-KEK-γGlu-C18 diacid])QAARDFIAWLIQHKITD-OH [Compound 47] | 0.44 nM
H-H[Aib]EGSFTSELATILDK([AEEA-KEK-γGlu-C20 diacid])KAARDFIAWLIEHKITD-OH [Compound 59] | 0.088 nM
H-H[Aib]EGSFTSELATILDK([AEEA-AEEA-KEK-γGlu-C20 diacid])QAARDFIAWLIEHKITD-OH [Compound 60] | 0.097 nM
B1 | 0.13 nM
H-H[Aib]EGSFTSELATILDAK([AEEA-AEEA-KEK-γGlu-C20 diacid])AARDFIAWLIEHKITD-OH [Compound 63] | 0.31 nM
H-H[Aib]EGTFTSELATILDK([AEEA-KEK-γGlu-C20 diacid])QAARDFIAWLIEHKITD-OH [Compound 56] | 0.033 nM
B2 | 0.042 nM
B3 | 0.63 nM
H-H[Aib]EGSFTSELATILDAK([AEEA-KEK-γGlu-C20 diacid])AARDFIAWLIEHKITD-OH [Compound 62] | 0.27 nM
H-H[Aib]EGSFTSEK([AEEA-KEK-γGlu-C20 diacid])ATILDEQAARDFIAWLIEHKITD-OH [Compound 53] | 0.076 nM
H-H[Aib]EGTFTSEK([AEEA-KEK-γGlu-C20 diacid])ATILDEQAARDFIAWLIEHKITD-OH [Compound 54] | 0.034 nM
H-H[Aib]EGSFTSELATILDEQAAK([AEEA-KEK-γGlu-C20 diacid])DFIAWLIEHKITD-OH [Compound 64] | 0.49 nM
H-H[Aib]EGTFSSELATILDK([AEEA-KEK-γGlu-C18 diacid])QAARDFIAWLIEHKITD-OH [Compound 49] | 0.27 nM
H-H[Aib]EGTFSSELATILDK([AEEA-KEK-γGlu-C20 diacid])QAARDFIAWLIQHKITD-OH [Compound 48] | 0.47 nM
H-H[Aib]EGSFTSELATILEGK([AEEA-KEK-γGlu-C20 diacid])AARDFIAWLIEHKITD-OH [Compound 61] | 0.13 nM
H-H[Aib]EGSFTSELATILDK([AEEA-KEK-γGlu-C20 diacid])QAARDFIAWLIAHKITD-OH [Compound 58] | 0.089 nM
H-H[Aib]EGTFTSELATILDK([AEEA-KEK-γGlu-C20 diacid])QAARDFIAWLIQHKITD-OH [Compound 52] | 0.02 nM
H-H[Aib]EGSFTSEK([AEEA-AEEA-KEK-γGlu-C20 diacid])ATILDEQAARDFIAWLIEHKITD-OH [Compound 55] | 0.11 nM
H-H[Aib]EGSFTSELATILDK([AEEA-KEK-γGlu-C20 diacid])QAARDFIAWLIEHKITD-OH [Compound 57] | 0.093 nM
